Test results published in US20220402995A1 (TOSOH, published 2022).

Target: T1, AAV2-EGFP (AAV vector of serotype 2 carrying an EGFP gene) (AAV2, UniProt P03135 1-735; P03135 1-598; P03135 1-533)
T1 construct: Genome-containing AAV2 particle; amounts counted as vector genomes (VG) by qPCR
Assay: column of AVR5eHC immobilised on gel; cell extract with AAV2-EGFP applied, elution at pH 2.5

T1 sequence (P03135 whole entry, chain 1 of 3, the tested form may be a part): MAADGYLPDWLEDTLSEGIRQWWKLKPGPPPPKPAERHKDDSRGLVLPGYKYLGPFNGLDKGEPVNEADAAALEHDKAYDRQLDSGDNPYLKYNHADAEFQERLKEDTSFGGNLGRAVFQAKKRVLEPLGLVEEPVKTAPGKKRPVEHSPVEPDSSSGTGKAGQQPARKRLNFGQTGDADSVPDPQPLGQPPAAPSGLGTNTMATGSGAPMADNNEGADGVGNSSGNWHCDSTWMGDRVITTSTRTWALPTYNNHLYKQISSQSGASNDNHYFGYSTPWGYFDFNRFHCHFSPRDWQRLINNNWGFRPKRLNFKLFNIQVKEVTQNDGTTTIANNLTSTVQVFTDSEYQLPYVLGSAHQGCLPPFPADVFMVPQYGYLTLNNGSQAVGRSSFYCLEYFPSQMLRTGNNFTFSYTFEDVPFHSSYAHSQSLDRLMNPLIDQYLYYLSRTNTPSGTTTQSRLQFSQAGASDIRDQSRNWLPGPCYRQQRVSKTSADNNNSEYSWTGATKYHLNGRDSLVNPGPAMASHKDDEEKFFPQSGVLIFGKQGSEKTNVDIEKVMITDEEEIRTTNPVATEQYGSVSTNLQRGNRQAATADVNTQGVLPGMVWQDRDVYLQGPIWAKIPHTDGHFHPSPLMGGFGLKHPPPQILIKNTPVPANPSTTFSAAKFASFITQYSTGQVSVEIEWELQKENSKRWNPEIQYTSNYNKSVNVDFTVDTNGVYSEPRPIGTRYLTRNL
T1 sequence (P03135 139-735, tags left off, chain 2 of 3): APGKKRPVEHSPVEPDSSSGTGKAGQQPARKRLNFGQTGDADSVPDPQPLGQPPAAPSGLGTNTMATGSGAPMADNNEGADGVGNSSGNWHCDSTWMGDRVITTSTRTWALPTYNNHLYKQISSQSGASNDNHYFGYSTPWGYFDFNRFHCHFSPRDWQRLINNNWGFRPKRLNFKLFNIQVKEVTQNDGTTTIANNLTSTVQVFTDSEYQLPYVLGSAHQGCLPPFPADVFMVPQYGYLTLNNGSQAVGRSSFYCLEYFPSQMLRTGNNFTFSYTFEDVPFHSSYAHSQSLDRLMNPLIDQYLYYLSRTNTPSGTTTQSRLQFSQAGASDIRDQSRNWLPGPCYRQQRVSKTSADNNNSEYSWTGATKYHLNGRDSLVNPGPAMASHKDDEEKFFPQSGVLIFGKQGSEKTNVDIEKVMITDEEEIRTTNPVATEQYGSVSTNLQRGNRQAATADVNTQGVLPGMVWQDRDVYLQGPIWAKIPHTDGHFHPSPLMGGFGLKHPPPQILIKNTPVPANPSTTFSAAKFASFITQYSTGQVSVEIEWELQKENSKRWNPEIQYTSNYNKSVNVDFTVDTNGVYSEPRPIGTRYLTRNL
T1 sequence (P03135 203-735, chain 3 of 3): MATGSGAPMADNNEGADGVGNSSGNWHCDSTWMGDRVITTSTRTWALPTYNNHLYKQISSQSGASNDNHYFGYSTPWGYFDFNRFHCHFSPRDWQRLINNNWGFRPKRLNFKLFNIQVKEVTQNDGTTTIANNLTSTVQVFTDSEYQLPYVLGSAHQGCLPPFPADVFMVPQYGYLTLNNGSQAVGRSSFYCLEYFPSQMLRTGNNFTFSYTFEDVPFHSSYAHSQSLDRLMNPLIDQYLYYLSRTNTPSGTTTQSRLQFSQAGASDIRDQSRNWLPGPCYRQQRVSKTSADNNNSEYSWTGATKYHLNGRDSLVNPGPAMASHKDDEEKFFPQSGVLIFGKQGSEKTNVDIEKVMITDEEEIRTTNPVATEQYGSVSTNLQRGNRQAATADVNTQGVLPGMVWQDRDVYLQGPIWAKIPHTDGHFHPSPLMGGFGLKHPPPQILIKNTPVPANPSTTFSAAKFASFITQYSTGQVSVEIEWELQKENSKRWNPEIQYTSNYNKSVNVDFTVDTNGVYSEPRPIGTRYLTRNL

B1: AVR5eHC (AVR5e with a cysteine tag for immobilization at the C-terminus) (receptor)
chain: MGSAGESVQITLPKNEVQLNAYVLQEPPKGETCTYDWQLITHPRDYSGEMEGKHSQILKLSKLTPGLYEFKVIVEGQNAHSEGYVNVTVEPEPRKNRPPIAIVSPQFQEISLPTTSTVIDGSQSTDDDKIVQYHWEELKGPLREEKISEDTAILKLSKLVPGNYTFRLTVVDSDGATDSTTANLTVNKAVDHHHHHHCRNDTCG
notes: also called AVR5e-immobilized gel; AVR5e column
  binding result: binds
